Experimental data taken from PMC8125067.

Target: T1, endogenous IRF3 of HEK293T cells (human (endogenous in HEK293T)), Q14653
T1 chain: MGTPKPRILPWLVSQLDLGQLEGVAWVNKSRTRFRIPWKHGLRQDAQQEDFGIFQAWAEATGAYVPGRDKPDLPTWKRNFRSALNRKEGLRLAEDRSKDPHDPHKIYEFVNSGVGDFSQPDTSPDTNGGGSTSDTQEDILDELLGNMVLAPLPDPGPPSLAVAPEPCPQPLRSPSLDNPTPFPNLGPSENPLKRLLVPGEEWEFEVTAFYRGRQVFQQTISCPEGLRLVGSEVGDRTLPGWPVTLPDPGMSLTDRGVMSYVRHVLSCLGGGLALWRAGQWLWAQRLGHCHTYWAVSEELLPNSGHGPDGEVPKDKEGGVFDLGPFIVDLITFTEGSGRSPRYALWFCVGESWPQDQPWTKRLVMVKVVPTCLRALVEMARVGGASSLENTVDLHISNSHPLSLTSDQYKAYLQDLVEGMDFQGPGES
Test: native gel or EMSA; IRF3 dimer gel: lysate of HEK293T transfected 36 h with or without MDA5 and VP3; native PAGE, 25 mM Tris-HCl, 192 mM glycine, pH 8.4, 1% deoxycholate in the cathode chamber; blot with anti-IRF3
Conditions: remark: other sources report otherwise

B1: endogenous IRF3 of HEK293T cells, Q14653 1-427 (natural protein)
chain: MGTPKPRILPWLVSQLDLGQLEGVAWVNKSRTRFRIPWKHGLRQDAQQEDFGIFQAWAEATGAYVPGRDKPDLPTWKRNFRSALNRKEGLRLAEDRSKDPHDPHKIYEFVNSGVGDFSQPDTSPDTNGGGSTSDTQEDILDELLGNMVLAPLPDPGPPSLAVAPEPCPQPLRSPSLDNPTPFPNLGPSENPLKRLLVPGEEWEFEVTAFYRGRQVFQQTISCPEGLRLVGSEVGDRTLPGWPVTLPDPGMSLTDRGVMSYVRHVLSCLGGGLALWRAGQWLWAQRLGHCHTYWAVSEELLPNSGHGPDGEVPKDKEGGVFDLGPFIVDLITFTEGSGRSPRYALWFCVGESWPQDQPWTKRLVMVKVVPTCLRALVEMARVGGASSLENTVDLHISNSHPLSLTSDQYKAYLQDLVEGMDFQGPGES
Work on B1 yielded a stoichiometry N of 2.
